Our source for the fraction ligated values is the supplement of paper PMC6755084.

B1: F1*; a variant is named by its letters at N, in order (parent)
chain: GAGACCGCAACTGAAAAGTTGTTATCACTTGTCGNANNNNNNTTNGNNNGGNTNNNGTTCTGCACGTAGAAGCAAAAGGC
B2: F1*; a variant is named by its letters at N, in order (parent)
chain: GAGACCGCAACTGAAAAGTTGTTATCNNNNNNNNAANNNNNTTNGNNGGGTTGAAGTTCTGCACGTAGAAGCAAAAGGC
B3: F1*; the commonest letter at each place (parent)
chain: GAGACCGCAACTGAAAAGTTGTTATCACTTGTCGTAAGACACTTTGGATGGGTTGAAGTTCTGCACGTAGAAGCAAAAGGC

The variants in the first data set derive from B1. Kind of data set: fraction ligated after 30 min (ligated reads / total reads); higher = more ligase activity. The note with it: with F1*sub RNA substrate (template-directed ligation), 42 °C. As for the experimental part:
(§1)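 Chip-synthesised pool of F1* ligase ribozyme variants (all single and double substitutions, single, double and triple deletions in the catalytic core and GAA bulge, plus designed variants) was transcribed with T7 and reacted as a pool with excess substrate F1*sub for 30 min at 42 C in 50 mM EPPS pH 8.5, 25 mM MgCl2. Ligated and unligated bands were separated by PAGE, barcoded by RT and deep sequenced; fraction ligated = ligated reads / total reads per variant, relative activity = FL / FL of wild type (0.826). Sequences are the DNA template of the ribozyme.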
For GAGACCGCAACTGAAAAGTTGTTATCACTTGTCGTAAGACACTTTGGTGGGTTGAAGTTCTGCACGTAGAAGCAAAAGGC [TAGACACTGTGTGAA], the fraction ligated was 0.354.

For GAGACCGCAACTGAAAAGTTGTTATCACTTGTCGTAAGACCTTTGGATGGGTTGAAGTTCTGCACGTAGAAGCAAAAGGC [TAGACCTGATGTGAA], the fraction ligated came out at 0.839.

With GAGACCGCAACTGAAAAGTTGTTATCACTTGTCGTAAGACACTTTGATGGGTTGAAGTTCTGCACGTAGAAGCAAAAGGC [TAGACACTATGTGAA], the fraction ligated is 0.782.

On to GAGACCGCAACTGAAAAGTTGTTATCACTTGTCGTAAGACACTTTGGATGGGTTAGGTTCTGCACGTAGAAGCAAAAGGC [TAGACACTGATGTAG], for which the fraction ligated stood at 0.773.

As to GAGACCGCAACTGAAAAGTTGTTATCACTTGTCGTAAGACACTTTGGATGGGTTACGTTCTGCACGTAGAAGCAAAAGGC [TAGACACTGATGTAC], the fraction ligated worked out at 0.56.

With GAGACCGCAACTGAAAAGTTGTTATCACTTGTCGTAAGACACTTTGGATGGGTTATGTTCTGCACGTAGAAGCAAAAGGC [TAGACACTGATGTAT], the fraction ligated is 0.762.

As to GAGACCGCAACTGAAAAGTTGTTATCACTTGTCGTAAGACACTTTGGATGGGTTAAGTTCTGCACGTAGAAGCAAAAGGC [TAGACACTGATGTAA], the fraction ligated amounted to 0.834.

With GAGACCGCAACTGAAAAGTTGTTATCACTTGTCGTAAGACACTTTGGAGGGTTGAAGTTCTGCACGTAGAAGCAAAAGGC [TAGACACTGAGTGAA], the fraction ligated amounted to 0.168.

Consider GAGACCGCAACTGAAAAGTTGTTATCACTTGTCGTAAGCACTTTGGATGGGTTGAAGTTCTGCACGTAGAAGCAAAAGGC [TAGCACTGATGTGAA], for which the fraction ligated is 0.827.

As for GAGACCGCAACTGAAAAGTTGTTATCACTTGTCGTAAGACACTTTGGATGGGTTCCGTTCTGCACGTAGAAGCAAAAGGC [TAGACACTGATGTCC], the fraction ligated came to 0.0263.

Regarding GAGACCGCAACTGAAAAGTTGTTATCACTTGTCGTAAGACACTTTGGATGGGTTCTGTTCTGCACGTAGAAGCAAAAGGC [TAGACACTGATGTCT], the fraction ligated is 0.0184.

On to GAGACCGCAACTGAAAAGTTGTTATCACTTGTCGTAAGACACTTTGGATGGGTTCAGTTCTGCACGTAGAAGCAAAAGGC [TAGACACTGATGTCA], for which the fraction ligated was 0.792.

As for GAGACCGCAACTGAAAAGTTGTTATCACTTGTCGTAAGACACTTTGGATGGGTTCGGTTCTGCACGTAGAAGCAAAAGGC [TAGACACTGATGTCG], the fraction ligated amounted to 0.0205.

Take GAGACCGCAACTGAAAAGTTGTTATCACTTGTCGAAGACACTTTGGATGGGTTGAAGTTCTGCACGTAGAAGCAAAAGGC [AGACACTGATGTGAA]: the fraction ligated is 0.843.

Turning to GAGACCGCAACTGAAAAGTTGTTATCACTTGTCGTAAGACACTTTGGATGGGTTGAGTTCTGCACGTAGAAGCAAAAGGC [TAGACACTGATGTGA], the fraction ligated was 0.848.

On to GAGACCGCAACTGAAAAGTTGTTATCACTTGTCGTAAGACACTTTGGATGGGTTGCGTTCTGCACGTAGAAGCAAAAGGC [TAGACACTGATGTGC], for which the fraction ligated worked out at 0.802.

Regarding GAGACCGCAACTGAAAAGTTGTTATCACTTGTCGTAAGACACTTTGGATGGGTTGTGTTCTGCACGTAGAAGCAAAAGGC [TAGACACTGATGTGT], the fraction ligated worked out at 0.349.

For GAGACCGCAACTGAAAAGTTGTTATCACTTGTCGTAAGACACTTTGGATGGGTTGGGTTCTGCACGTAGAAGCAAAAGGC [TAGACACTGATGTGG], the fraction ligated worked out at 0.352.

Turning to GAGACCGCAACTGAAAAGTTGTTATCACTTGTCGTAAGACACTTGGATGGGTTGAAGTTCTGCACGTAGAAGCAAAAGGC [TAGACACGATGTGAA], the fraction ligated was determined as 0.799.

For the variant GAGACCGCAACTGAAAAGTTGTTATCACTTGTCGTAAGACACTTTGGATGGGTTTCGTTCTGCACGTAGAAGCAAAAGGC [TAGACACTGATGTTC], the fraction ligated turned out to be 0.0084.

On to GAGACCGCAACTGAAAAGTTGTTATCACTTGTCGTAAGACACTTTGGATGGGTTTGGTTCTGCACGTAGAAGCAAAAGGC [TAGACACTGATGTTG], for which the fraction ligated was 0.0257.

For the variant GAGACCGCAACTGAAAAGTTGTTATCACTTGTCGTAAGACACTTTGGATGGGTTTAGTTCTGCACGTAGAAGCAAAAGGC [TAGACACTGATGTTA], the fraction ligated amounted to 0.834.

For the variant GAGACCGCAACTGAAAAGTTGTTATCACTTGTCGTAAGACACTTTGGATGGGTTTTGTTCTGCACGTAGAAGCAAAAGGC [TAGACACTGATGTTT], the fraction ligated came out at 0.0147.

Take GAGACCGCAACTGAAAAGTTGTTATCACTTGTCGTAAGACATTTGGATGGGTTGAAGTTCTGCACGTAGAAGCAAAAGGC [TAGACATGATGTGAA]: the fraction ligated came out at 0.829.

On to GAGACCGCAACTGAAAAGTTGTTATCACTTGTCGTAAGAACTTTGGATGGGTTGAAGTTCTGCACGTAGAAGCAAAAGGC [TAGAACTGATGTGAA], for which the fraction ligated worked out at 0.821.

For GAGACCGCAACTGAAAAGTTGTTATCACTTGTCGTAGACACTTTGGATGGGTTGAAGTTCTGCACGTAGAAGCAAAAGGC [TGACACTGATGTGAA], the fraction ligated is 0.849.

Regarding GAGACCGCAACTGAAAAGTTGTTATCACTTGTCGTAAGACACTTTGGATGGTTGAAGTTCTGCACGTAGAAGCAAAAGGC [TAGACACTGATTGAA], the fraction ligated was found to be 0.703.

Regarding GAGACCGCAACTGAAAAGTTGTTATCACTTGTCGTAAACACTTTGGATGGGTTGAAGTTCTGCACGTAGAAGCAAAAGGC [TAACACTGATGTGAA], the fraction ligated came out at 0.832.

Variants of B2 are the subject of another data set. The description is as above. The note with it: with F1*sub RNA substrate (template-directed ligation), 42 °C. As for the experimental part:
as §1
Take GAGACCGCAACTGAAAAGTTGTTATCACTGTCGTAAGACACTTTGGAGGGTTGAAGTTCTGCACGTAGAAGCAAAAGGC [ACTGTCGTGACACTGA]: the fraction ligated amounted to 0.13.

In the case of GAGACCGCAACTGAAAAGTTGTTATCATTGTCGTAAGACACTTTGGTGGGTTGAAGTTCTGCACGTAGAAGCAAAAGGC [ATTGTCGTGACACTGT], the fraction ligated was 0.583.

Regarding GAGACCGCAACTGAAAAGTTGTTATCACTTGTCGAAGACCTTTGGATGGGTTGAAGTTCTGCACGTAGAAGCAAAAGGC [ACTTGTCGGACCTGAT], the fraction ligated was 0.801.

In the next data set the parent is B3. The data set is described as above. The note with it: with F1*sub RNA substrate (template-directed ligation), 42 °C. As for the experimental part:
as §1
In the case of GAGACCGCAACTGAAAAGTTGCTATCACTTGTCGTAAGACACTTTGGATGGGTTGAAGTTCTGCACGTAGAAGCAAAAGGC [T22C], the fraction ligated turned out to be 0.819.

With GAGACCGCAACTGAAAAGTTGTAATCACTTGTCGTAAGACACTTTGGATGGGTTGAAGTTCTGCACGTAGAAGCAAAAGGC [T23A], the fraction ligated came to 0.837.

On to GAGACCGCAACTGAAAAGTTGTAGTCACTTGTCGTAAGACACTTTGGATGGGTTGAAGTTCTGCACGTAGAAGCAAAAGGC [T23A A24G], for which the fraction ligated is 0.764.

GAGACCGCAACTGAAAAGTTGTACTCACTTGTCGTAAGACACTTTGGATGGGTTGAAGTTCTGCACGTAGAAGCAAAAGGC [T23A A24C]: the fraction ligated stood at 0.782.
